Results as given in the supplement of paper PMC10567573.

B1: ZBTB22 (parent)
chain: HTGLKPYECGVCAKKFMWRDSFMR
B2: RSPH3 (parent)
chain: VDVQTELYLEEIADRIIEVDMECQ

Variants of: B1
Test: protein stability index of a GFP-peptide fusion (GPS, HEK-293T) (PSI 1-6); higher = more stable
Settings: c terminus: a fixed tail appended
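Further: lentivirally expressed fusions sorted by FACS into six bins by GFP to DsRed ratio, PSI derived from sequencing read proportions per bin multiplied by bin number.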

Compared with HTGLKPYECGVCAKKFMWRDSDMR [F22D], HTGLKPYECGVCAKKFMWRDSHMR [F22H] is lower in protein stability index: 3.47 for the first, 1.45 for the second.

Going from HTGLKPYECGVCAKKFMWRDSWMR [F22W] to HTGLKPYECGVCAKKFMWRDSRMR [F22R], the protein stability index rises from 1.53 to 1.56.

Compared with HTGLKPYECGVCAKKFMWRDSLMR [F22L], HTGLKPYECGVCAKKFMWRDSEMR [F22E] is higher in protein stability index: 2.46 for the first, 3.96 for the second.

First: HTGLKPYECGVCAKKFMWRDSPMR [F22P]
Second: HTGLKPYECGVCAKKFMWRDSYMR [F22Y]
The protein stability index of the first is higher: 2.07 for the first, 1.89 for the second.

Compared with HTGLKPYECGVCAKKFMWRDSQMR [F22Q], HTGLKPYECGVCAKKFMWRDSKMR [F22K] is lower in protein stability index: 3.48 for the first, 2.54 for the second.

Going from HTGLKPYECGVCAKKFMWRDSAMR [F22A] to HTGLKPYECGVCAKKFMWRDSTMR [F22T], the protein stability index falls from 1.79 to 1.74.

Compared with HTGLKPYECGVCAKKFMWRDSCMR [F22C], HTGLKPYECGVCAKKFMWRDSNMR [F22N] is lower in protein stability index: 2.21 for the first, 1.49 for the second.

Compared with HTGLKPYECGVCAKKFMWRDSSMR [F22S], HTGLKPYECGVCAKKFMWRDSFMW [R24W] is higher in protein stability index: 1.66 for the first, 1.67 for the second.

Going from HTGLKPYECGVCAKKFMWRDSFMS [R24S] to HTGLKPYECGVCAKKFMWRDSFMN [R24N], the protein stability index rises from 2.96 to 3.03.

Going from HTGLKPYECGVCAKKFMWRDSFMF [R24F] to HTGLKPYECGVCAKKFMWRDSFMT [R24T], the protein stability index rises from 2.3 to 3.9.

First: HTGLKPYECGVCAKKFMWRDSFMC [R24C]
Second: HTGLKPYECGVCAKKFMWRDSFMH [R24H]
The protein stability index of the first is lower: 2.94 for the first, 3.35 for the second.

Compared with HTGLKPYECGVCAKKFMWRDSFMQ [R24Q], HTGLKPYECGVCAKKFMWRDSFMI [R24I] is higher in protein stability index: 1.6 for the first, 1.79 for the second.

Compared with HTGLKPYECGVCAKKFMWRDSFML [R24L], HTGLKPYECGVCAKKFMWRDSFMG [R24G] is lower in protein stability index: 3.44 for the first, 1.87 for the second.

Compared with HTGLKPYECGVCAKKFMWRDSFMM [R24M], HTGLKPYECGVCAKKFMWRDSFMD [R24D] is lower in protein stability index: 3.19 for the first, 1.37 for the second.

Going from HTGLKPYECGVCAKKFMWRDSFMK [R24K] to HTGLKPYECGVCAKKFMWRDSFMV [R24V], the protein stability index rises from 1.71 to 2.82.

First: HTGLKPYECGVCAKKFMWRDSFYR [M23Y]
Second: HTGLKPYECGVCAKKFMWRDSFER [M23E]
The protein stability index of the first is lower: 2.82 for the first, 4.04 for the second.

Compared with HTGLKPYECGVCAKKFMWRDSFNR [M23N], HTGLKPYECGVCAKKFMWRDSFPR [M23P] is higher in protein stability index: 2.22 for the first, 2.28 for the second.

Going from HTGLKPYECGVCAKKFMWRDSFLR [M23L] to HTGLKPYECGVCAKKFMWRDSFRR [M23R], the protein stability index rises from 1.85 to 2.64.

Going from HTGLKPYECGVCAKKFMWRDSFFR [M23F] to HTGLKPYECGVCAKKFMWRDSFIR [M23I], the protein stability index falls from 2.41 to 1.88.

Compared with HTGLKPYECGVCAKKFMWRDSFTR [M23T], HTGLKPYECGVCAKKFMWRDSFWR [M23W] is lower in protein stability index: 2.71 for the first, 2.22 for the second.

Going from HTGLKPYECGVCAKKFMWRDSFHR [M23H] to HTGLKPYECGVCAKKFMWRDSFSR [M23S], the protein stability index falls from 2.79 to 2.46.

First: HTGLKPYECGVCAKKFMWRDSFAR [M23A]
Second: HTGLKPYECGVCAKKFMWRDSFGR [M23G]
The protein stability index of the first is higher: 3.12 for the first, 1.69 for the second.

First: HTGLKPYECGVCAKKFMWRDSFVR [M23V]
Second: HTGLKPYECGVCAKKFMWRDSFKR [M23K]
The protein stability index of the first is higher: 1.96 for the first, 1.92 for the second.

Going from HTGLKPYECGVCAKKFMWRDSFQR [M23Q] to HTGLKPYECGVCAKKFMWRDIFMR [S21I], the protein stability index falls from 3.15 to 2.32.

Going from HTGLKPYECGVCAKKFMWRDQFMR [S21Q] to HTGLKPYECGVCAKKFMWRDVFMR [S21V], the protein stability index rises from 1.83 to 2.1.

Compared with HTGLKPYECGVCAKKFMWRDTFMR [S21T], HTGLKPYECGVCAKKFMWRDWFMR [S21W] is higher in protein stability index: 1.73 for the first, 2.84 for the second.

Going from HTGLKPYECGVCAKKFMWRDPFMR [S21P] to HTGLKPYECGVCAKKFMWRDNFMR [S21N], the protein stability index falls from 3.07 to 1.49.

Compared with HTGLKPYECGVCAKKFMWRDRFMR [S21R], HTGLKPYECGVCAKKFMWRDLFMR [S21L] is higher in protein stability index: 1.08 for the first, 3.24 for the second.

For HTGLKPYECGVCAKKFMWRDYFMR [S21Y], the protein stability index was 2.58.

Variants of: B2
Test: as above
Settings: c terminus: a fixed tail appended

Compared with TDVQTELYLEEIADRIIEVDMECQ [V1T], MDVQTELYLEEIADRIIEVDMECQ [V1M] is lower in protein stability index: 3.75 for the first, 2.39 for the second.

First: SDVQTELYLEEIADRIIEVDMECQ [V1S]
Second: CDVQTELYLEEIADRIIEVDMECQ [V1C]
The protein stability index of the first is higher: 3.88 for the first, 2.36 for the second.

First: YDVQTELYLEEIADRIIEVDMECQ [V1Y]
Second: FDVQTELYLEEIADRIIEVDMECQ [V1F]
The protein stability index of the first is higher: 1.94 for the first, 1.55 for the second.

Going from RDVQTELYLEEIADRIIEVDMECQ [V1R] to LDVQTELYLEEIADRIIEVDMECQ [V1L], the protein stability index falls from 2.57 to 1.72.

Going from NDVQTELYLEEIADRIIEVDMECQ [V1N] to GDVQTELYLEEIADRIIEVDMECQ [V1G], the protein stability index falls from 3.75 to 2.86.

Compared with HDVQTELYLEEIADRIIEVDMECQ [V1H], EDVQTELYLEEIADRIIEVDMECQ [V1E] is lower in protein stability index: 3.24 for the first, 3.11 for the second.

Going from KDVQTELYLEEIADRIIEVDMECQ [V1K] to PDVQTELYLEEIADRIIEVDMECQ [V1P], the protein stability index rises from 2.79 to 3.11.

Compared with ADVQTELYLEEIADRIIEVDMECQ [V1A], WDVQTELYLEEIADRIIEVDMECQ [V1W] is lower in protein stability index: 3.1 for the first, 2.44 for the second.

Going from QDVQTELYLEEIADRIIEVDMECQ [V1Q] to IDVQTELYLEEIADRIIEVDMECQ [V1I], the protein stability index falls from 3.25 to 1.64.

Compared with DDVQTELYLEEIADRIIEVDMECQ [V1D], VQVQTELYLEEIADRIIEVDMECQ [D2Q] is lower in protein stability index: 3.3 for the first, 1.72 for the second.

Compared with VNVQTELYLEEIADRIIEVDMECQ [D2N], VPVQTELYLEEIADRIIEVDMECQ [D2P] is higher in protein stability index: 2.17 for the first, 3.08 for the second.

Going from VTVQTELYLEEIADRIIEVDMECQ [D2T] to VIVQTELYLEEIADRIIEVDMECQ [D2I], the protein stability index rises from 2.39 to 2.61.

First: VMVQTELYLEEIADRIIEVDMECQ [D2M]
Second: VAVQTELYLEEIADRIIEVDMECQ [D2A]
The protein stability index of the first is higher: 3.88 for the first, 1.63 for the second.

Going from VCVQTELYLEEIADRIIEVDMECQ [D2C] to VLVQTELYLEEIADRIIEVDMECQ [D2L], the protein stability index rises from 2.57 to 2.6.

Compared with VRVQTELYLEEIADRIIEVDMECQ [D2R], VYVQTELYLEEIADRIIEVDMECQ [D2Y] is higher in protein stability index: 1.76 for the first, 3.84 for the second.

Going from VKVQTELYLEEIADRIIEVDMECQ [D2K] to VEVQTELYLEEIADRIIEVDMECQ [D2E], the protein stability index rises from 1.91 to 2.51.

VSVQTELYLEEIADRIIEVDMECQ [D2S] and VGVQTELYLEEIADRIIEVDMECQ [D2G] are the same in protein stability index: 1.81 for the first, 1.81 for the second.

Going from VDAQTELYLEEIADRIIEVDMECQ [V3A] to VDCQTELYLEEIADRIIEVDMECQ [V3C], the protein stability index falls from 3.22 to 2.35.

VDDQTELYLEEIADRIIEVDMECQ [V3D] showed a protein stability index of 2.66.
